Measurements taken from article PMC7536154, “Biochemical characterization of ferric uptake regulator (Fur) from Aliivibrio salmonicida. Mapping the DNA sequence specificity through binding studies and structural modelling”.

B1: Vibrio consensus Fur box (dsDNA)
DNA 1: AATGATAATAATTATCATT
DNA 2: AATGATAATTATTATCATT
B2: Vibrio anti-consensus (least conserved) (dsDNA)
DNA 1: CCGTGCGCACTCCGCAGGG
DNA 2: CCCTGCGGAGTGCGCACGG

Assays:
[1] = biological target: Ferric uptake regulator (Fur) from Aliivibrio salmonicida (Aliivibrio salmonicida); experiment: SEC; Superdex 200 16/60; 300 mM NaCl, 50 mM Tris-HCl, 5 mM beta-mercaptoethanol, pH 7.5; second purification step after IMAC
[2] = biological target: T1, AsFur (ferric uptake regulator) (Aliivibrio salmonicida, UniProt Q7AUU7 1-147); experiment: EMSA; Mn2+ (100 uM MnCl2); EMSA: 20 mM Tris acetate pH 8.0, 1 mM MgCl2, 50 mM KCl, 1 mM DTT, 100 uM MnCl2, RT, 5 uM DNA, 0-80 uM AsFur, gel at 6 C; protection assay: 100 mM BisTrisPropane pH 7.5, 100 mM KCl, 5 mM MgSO4, 20 uM AsFur, 10 nM plasmid, RT then HinfI 37 C; settings: protein: recombinant; tags: none stated (pDEST14; histidine-rich protein purified by IMAC); chain copies: 2; blunt
T1 sequence: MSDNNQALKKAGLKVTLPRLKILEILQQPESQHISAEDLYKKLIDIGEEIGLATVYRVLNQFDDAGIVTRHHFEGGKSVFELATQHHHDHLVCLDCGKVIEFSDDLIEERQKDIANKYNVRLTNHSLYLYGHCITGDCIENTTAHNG

| Molecule | stoichiometry N [1] | binding result [2] |
| --- | --- | --- |
| Ferric uptake regulator (Fur) from Aliivibrio salmonicida (natural protein) | 2 |  |
| B1 |  | binds |
| B2 |  | no binding |
